From EP4755916A1 (Jiangsu Hengrui Pharmaceuticals Co., Ltd., dated 2026)
Residue numbers refer to the chain shown, from its start. In names and notes the source's numbering stands. Like-named read-outs stand apart in the source and are kept apart here. Blank lines part the entries; values can stand above or below the binder they belong to.

Experiments:
[1] = molecular target: T1, human BTN3A1 expressed on HEK293 cells (human, UniProt O00481 30-513); test: flow cytometry, HEK293 cells (endogenous BTN3A knocked out) overexpressing human BTN3A1
T1 construct: whole, on cells; also called BTN3A1-expressing HEK293 cells; human BTN3A1-overexpressing cells
T1 sequence (O00481 30-513): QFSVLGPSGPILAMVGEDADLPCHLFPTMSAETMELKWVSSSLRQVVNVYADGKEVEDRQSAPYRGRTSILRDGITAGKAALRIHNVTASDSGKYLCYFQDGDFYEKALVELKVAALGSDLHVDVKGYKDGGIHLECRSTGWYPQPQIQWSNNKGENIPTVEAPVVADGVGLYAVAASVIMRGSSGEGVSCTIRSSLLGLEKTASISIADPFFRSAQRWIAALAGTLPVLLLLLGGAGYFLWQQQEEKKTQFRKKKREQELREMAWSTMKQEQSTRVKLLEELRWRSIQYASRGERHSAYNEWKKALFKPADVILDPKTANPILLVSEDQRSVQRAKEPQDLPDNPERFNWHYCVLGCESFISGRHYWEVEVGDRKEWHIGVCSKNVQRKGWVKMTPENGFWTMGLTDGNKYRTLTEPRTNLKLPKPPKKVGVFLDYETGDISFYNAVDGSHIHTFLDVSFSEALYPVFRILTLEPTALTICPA

[2] = molecular target: T2, human BTN3A1 recombinant protein with his tag (h-BTN3A1-his) (human, UniProt O00481 30-254); test: ELISA, plate coated with h-BTN3A1-his, antibody titrated
T2 construct: range 30-254; Bought from Kactus; also called human BTN3A1 antigen protein (Kactus Biosystems, BTN-HM1A1); not shown: his tag
T2 sequence (O00481 30-254 limits assumed): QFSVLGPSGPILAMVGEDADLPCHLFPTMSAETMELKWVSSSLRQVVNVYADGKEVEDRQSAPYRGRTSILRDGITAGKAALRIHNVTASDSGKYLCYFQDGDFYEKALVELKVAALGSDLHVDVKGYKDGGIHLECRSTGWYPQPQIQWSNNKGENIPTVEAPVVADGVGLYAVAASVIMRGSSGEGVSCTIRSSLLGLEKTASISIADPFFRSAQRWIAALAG

[3] = molecular target: T2, human BTN3A1 recombinant protein with …; test: SPR Biacore 8K, antibody captured on Protein A chip, BTN3A1 as analyte, 1:1 Langmuir fit
[4] = molecular target: T1, human BTN3A1 expressed on HEK293 cells; test: flow cytometry, HEK293 cells overexpressing human BTN3A1
[5] = molecular target: T3, human BTN3A2 overexpressed on HEK293 cells (human, UniProt P78410 30-334); test: flow cytometry, HEK293 cells (endogenous BTN3A knocked out) overexpressing human BTN3A2
T3 construct: whole, on cells; HEK293 cells with endogenous BTN3A knocked out; also called human BTN3A2-overexpressing cells
T3 sequence (P78410 30-334): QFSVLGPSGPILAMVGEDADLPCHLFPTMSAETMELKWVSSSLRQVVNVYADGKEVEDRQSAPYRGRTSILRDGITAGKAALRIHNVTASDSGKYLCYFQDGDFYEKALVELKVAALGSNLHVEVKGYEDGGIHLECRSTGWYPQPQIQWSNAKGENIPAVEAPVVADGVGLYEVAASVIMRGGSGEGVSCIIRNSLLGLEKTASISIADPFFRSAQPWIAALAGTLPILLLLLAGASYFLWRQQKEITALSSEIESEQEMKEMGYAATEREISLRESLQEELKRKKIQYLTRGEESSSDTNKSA

[6] = molecular target: T4, human BTN3A3 overexpressed on HEK293 cells (human, UniProt O00478 30-584); test: flow cytometry, HEK293 cells (endogenous BTN3A knocked out) overexpressing human BTN3A3
T4 construct: whole, on cells; HEK293 cells with endogenous BTN3A knocked out; also called human BTN3A3-overexpressing cells
T4 sequence (O00478 30-584): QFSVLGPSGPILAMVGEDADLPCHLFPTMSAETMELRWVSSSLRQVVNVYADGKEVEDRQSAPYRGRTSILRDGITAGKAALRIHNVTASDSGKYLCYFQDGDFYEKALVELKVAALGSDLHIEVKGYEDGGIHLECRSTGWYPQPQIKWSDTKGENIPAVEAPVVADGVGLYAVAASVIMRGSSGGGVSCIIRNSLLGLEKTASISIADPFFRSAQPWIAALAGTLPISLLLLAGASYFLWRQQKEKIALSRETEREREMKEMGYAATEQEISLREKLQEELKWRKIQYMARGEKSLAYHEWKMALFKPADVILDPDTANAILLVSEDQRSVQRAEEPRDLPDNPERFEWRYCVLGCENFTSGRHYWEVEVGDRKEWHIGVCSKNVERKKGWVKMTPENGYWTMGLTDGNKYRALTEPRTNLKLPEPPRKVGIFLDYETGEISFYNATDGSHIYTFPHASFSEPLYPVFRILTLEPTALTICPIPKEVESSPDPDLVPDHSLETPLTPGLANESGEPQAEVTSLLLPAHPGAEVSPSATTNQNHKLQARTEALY

[7] = molecular target: T1, human BTN3A1 expressed on HEK293 cells; test: flow cytometry, HEK293 cells (endogenous BTN3A knocked out) overexpressing human BTN3A1; remark: listed apart in the source
[8] = molecular target: T2, human BTN3A1 recombinant protein with …; test: SPR Biacore 8K, antibody captured on Protein A chip, BTN3A1 as analyte, 1:1 Langmuir fit; remark: listed apart in the source

EC50 [1]: 15.4 nM | EC50 [2]: 0.0228 nM | Kd [3]: 0.228 nM | koff [3]: 0.000182 s⁻¹ | kon [3]: 800000 M⁻¹ s⁻¹ | EC50 [4]: 17.4 nM | Max FACS mean fluorescence intensity (MFI) [4]: 98000 MFI
B1: 17G4 (a human-rabbit chimeric antibody, parent) (antibody, human IgG1, kappa, V domains shown)
VH: QSLEESGGRLVTPGTPLTLTCTASGFSLNDYYITWVRQAPGKGLEWIGVIYGSSNTVYASWAKGRFTISKTSTMVDLRITSPTTEDTATYFCARGYLASSADIWGPGTLVTVSL
VL: QVLTQTPSPVSAAVGGTVTINCQSSQSVYNNNRLAWYQQKPGQPPKLLIYDASTLASGVPSRFKGSGSGTDFTLTISDLECADAATYYCQTYYSGYIWAFGGGTEVVVKR
notes: Rabbit variable regions on the human IgG1 constant region with L234F/L235E/P331S (Eu numbering) and human Ckappa

EC50 [1]: 8.2 nM | EC50 [2]: 0.0196 nM | Kd [3]: 0.174 nM | koff [3]: 0.000172 s⁻¹ | kon [3]: 985000 M⁻¹ s⁻¹ | EC50 [4]: 11.7 nM | Max FACS mean fluorescence intensity (MFI) [4]: 95800 MFI
B2: 20A3 (a human-rabbit chimeric antibody, parent) (antibody, human IgG1, kappa, V domains shown)
VH: QSVEESGGRLVTPGTPLTLTCTASGFTINNYYMNWVRQAPGKGLEWIGIIYGSDNTYYASWAKGRFTISKTSTTVDLIMTSPTTEDTATYFCVRNLDYSSAYFHIWGPGTLVTVSS
VL: QVLTQTPSPVSAAVGGTVSISCQASQSVYNNNRLAWYQQKPGQPPNLLIYEASKLASGVPSRFKGSGSGTQFTLIISEVQCEDAATYYCQGYYSGFIYPFGGGTEVVVKR
notes: as for B1

EC50 [4]: 19.8 nM | Max FACS mean fluorescence intensity (MFI) [4]: 89700 MFI
B3: 17G4-H5L3 (antibody, human IgG1, kappa, V domains shown)
VH: EQQLVESGGGLVQPGGSLRLSCAASGFSLNDYYITWVRQAPGKGLEWIGVIYGSSNTVYASWAKGRFTISKTSTMVYLQMNSLRAEDTAVYFCARGYLASSADIWGQGTLVTVSS
VL: DQQLTQSPSSLSASVGDRVTITCQSSQSVYNNNRLAWYQQKPGKPPKLLIYDASTLASGVPSRFSGSGSGTDFTLTISSLQPEDVATYYCQTYYSGYIWAFGGGTKVEIKR
notes: Humanized; human IgG1 constant region with L234F/L235E/P331S and human Ckappa; also called 17G4's humanized antibody

EC50 [5]: 6.76 nM | EC50 [6]: 5.12 nM | EC50 [7]: 2.98 nM | Kd [8]: 0.174 nM | koff [8]: 0.000172 s⁻¹ | kon [8]: 985000 M⁻¹ s⁻¹ | EC50 [4]: 10.2 nM | Max FACS mean fluorescence intensity (MFI) [4]: 91200 MFI
B4: 20A3-H2L2 (antibody, human IgG1, kappa, V domains shown)
VH: EVQLVESGGGLVQPGGSLRLSCAASGFTINNYYMNWVRQAPGKGLEWVSIIYGSDNTYYASWAKGRFTISKDNSKNTVYLQMNSLRAEDTAVYYCVRNLDYSSAYFHIWGQGTLVTVSS
VL: B3 VL with Q2I, S25A, D52E, T55K, T92G, Y97F, W99Y, A100P
notes: Humanized; human IgG1 constant region with L234F/L235E/P331S and human Ckappa; also called 20A3's humanized antibody
